3 molecules from US20250197491A1 (MACOMICS, published 2025) can be followed below.

For experiment [1], the target named is T1, Human LILRB1(I142T/S155I) ectodomain fused to mIgG2aFc (human).
T1 construct: The entry already carries the two substitutions
Description: ELISA, antigen coated, 10 nM antibody. An excerpt: (§1) FIG. 3. Mixed LILRB1 and LILRB2 expression in TAMs from melanoma cancer patients. Analysis of LILRB1 and LILRB2 detection in macrophages in pre- and post-anti-PD-1 and/or anti-CTLA-4 therapy treated melanoma patients (n=33) is shown using Smart-seq2 data from Sade-Feldman et al. https://pubmed.ncbi.nlm.nih.gov/30633907/FIG. 4. Binding to domains of human LILRB1. Plates were coated with recombinant full length LILRB1 ectodomain (SEQ ID NO: 41) or a protein comprising domain 1 and 2 of human LILRB1 protein (SEQ ID NO: 42), and then incubated with 10 nM Clones 1-5, Reference Ab 1, and Isotype control. The bound antibodies were detected using HRP-labeled secondary antibodies and the results were plotted on the graph as absorbance measured at 450 nm.
(§2) Binding to allelic forms of LILRB1. There are 4 major allelic variants of human LILRB1 protein ectodomain. The variants of LILRB1 were expressed as recombinant proteins comprising a modified LILRB1 ectodomain and mouse IgG2 Fc region (SEQ ID NO: 50 and 51) in suspension CHO cells, and purified by using techniques that were known in the art. These recombinant proteins were then used in the direct enzyme-linked immunosorbent assay (ELISA) to determine the antibodies potential to bind different allelic forms of LILRB1. In short, Maxisorp (Nunc) or similar immune-assay plates were coated with solutions of target proteins in PBS, at 4° C., overnight. Plates were then washed with PBS, blocked with 5% milk in PBS, and washed again. Test antibodies diluted in PBS were then added to the plates and incubated at room temperature for at least 1h. Plates were subsequently washed with PBS/0.05% Tween-20 (PBST) and incubated with a solution of horse radish peroxidase (HRP) labelled secondary antibodies at room temperature for at least 1 h. After washing with PBST and PBS, bound antibodies were detected using the 3,3′,5,5;-tetramethylbenzidine (TMB) chromogenic solution. After 5 to 10 minutes, the reaction was stopped with 1% sulphuric acid and absorbance read at 450 nm.
(§3) There are four major allelic variants within the ecto-domain of LILRB1 in human population [Human Molecular Genetics, 2005, Vol. 14, 2469-2480]; namely c.203T>C (L68P), c.277G>A (A93T), c.425T>C (I142T), and c.464G>T (S155I).

Experiment [2] has as its target T2, Human LILRB1(L68P/A93T) ectodomain fused to mIgG2aFc (human).
T2 construct: The entry already carries the two substitutions
The experiment in a line: ELISA, antigen coated, 10 nM antibody.
Source text: as §1, §2, §3

Experiment [3] concerns the target LILRB5 recombinant, full-length ectodomain (LILRB5 18-456) (human, UniProt O75023 24-456). Description: summary table (single point ELISA); N = No.
In the next experiment the target is T3, Human LILRA2 ectodomain (human, UniProt Q8N149 24-449).
T3 construct: Recombinant protein from a commercial source
T3 sequence (Q8N149 24-449 S135L): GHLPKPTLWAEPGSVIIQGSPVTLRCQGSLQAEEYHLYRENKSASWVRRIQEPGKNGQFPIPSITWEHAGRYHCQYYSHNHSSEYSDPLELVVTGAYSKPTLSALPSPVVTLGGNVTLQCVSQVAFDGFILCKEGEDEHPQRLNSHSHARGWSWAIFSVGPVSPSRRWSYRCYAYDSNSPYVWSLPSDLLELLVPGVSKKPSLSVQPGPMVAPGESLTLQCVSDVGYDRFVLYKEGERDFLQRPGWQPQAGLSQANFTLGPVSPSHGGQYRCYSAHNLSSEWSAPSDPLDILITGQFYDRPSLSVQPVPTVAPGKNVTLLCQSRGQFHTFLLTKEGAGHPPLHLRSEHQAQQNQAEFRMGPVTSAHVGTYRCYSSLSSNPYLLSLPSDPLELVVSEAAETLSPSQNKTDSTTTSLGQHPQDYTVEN
The experiment in a line: summary table (single point ELISA); N = No.

Experiment [4] concerns the target LILRB4 recombinant, full-length ectodomain (LILRB4 17-257) (human, UniProt Q8NHJ6 22-257). Description: summary table (single point ELISA); N = No.
The target of experiment [5] is LILRA5 recombinant, full-length ectodomain (LILRA5 42-268) (human, UniProt A6NI73 42-268). The experiment in a line: summary table (single point ELISA); N = No.
LILRA5 recombinant, full-length ectodomain (LILRA5 42-268), sequence (A6NI73 42-268): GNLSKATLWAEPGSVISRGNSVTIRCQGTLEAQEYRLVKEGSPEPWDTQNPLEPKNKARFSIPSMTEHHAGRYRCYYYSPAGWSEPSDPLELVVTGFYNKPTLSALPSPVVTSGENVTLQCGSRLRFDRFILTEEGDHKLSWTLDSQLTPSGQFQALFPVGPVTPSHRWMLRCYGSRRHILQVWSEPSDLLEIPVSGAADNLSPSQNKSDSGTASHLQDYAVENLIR
The target of experiment [6] is T4, Human LILRB1 (D1-D2) fused to mouse IgG2a Fc (human).
T4 construct: also called truncated (D1-D2) version of the LILRB1 ecto-domain
The experiment in a line: summary table (ELISA); N = No.

The target of experiment [7] is T5, human LILRB1 ectodomain fused to mIgG2a Fc (human).
T5 construct: also called human LILRB1-mIgG2a; full length LILRB1 ectodomain
T5 sequence (chain, as listed by the source limits assumed): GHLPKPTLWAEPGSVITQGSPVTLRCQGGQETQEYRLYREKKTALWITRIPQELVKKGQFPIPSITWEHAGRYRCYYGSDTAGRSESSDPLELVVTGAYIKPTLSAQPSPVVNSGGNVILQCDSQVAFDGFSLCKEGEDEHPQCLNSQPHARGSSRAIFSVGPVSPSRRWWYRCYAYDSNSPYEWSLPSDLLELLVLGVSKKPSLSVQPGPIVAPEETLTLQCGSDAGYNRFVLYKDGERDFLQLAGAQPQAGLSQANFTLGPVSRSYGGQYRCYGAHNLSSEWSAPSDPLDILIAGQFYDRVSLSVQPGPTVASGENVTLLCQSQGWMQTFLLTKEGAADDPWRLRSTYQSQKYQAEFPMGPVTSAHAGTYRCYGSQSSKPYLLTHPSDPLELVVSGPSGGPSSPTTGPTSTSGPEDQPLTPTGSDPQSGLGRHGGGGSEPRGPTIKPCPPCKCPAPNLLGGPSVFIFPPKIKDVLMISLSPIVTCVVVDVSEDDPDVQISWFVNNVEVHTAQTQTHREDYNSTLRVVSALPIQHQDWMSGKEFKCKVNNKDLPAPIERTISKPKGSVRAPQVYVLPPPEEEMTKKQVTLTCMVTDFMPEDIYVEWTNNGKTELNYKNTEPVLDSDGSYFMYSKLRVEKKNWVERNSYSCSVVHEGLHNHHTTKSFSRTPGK
The experiment in a line: summary table (ELISA); Y = Yes.

For experiment [8], the target named is T6, Rhesus monkey (Macaca mulatta) LILRB ectodomain fused to mIgG2a Fc (rhesus monkey (Macaca mulatta)).
T6 construct: also called rhesus LILRB-mIgG2a; rhesus LILRB protein
The experiment in a line: summary table (ELISA); Rhesus & Cyno LILRB1/2 binding; Y = Yes.

Experiment [9] addresses T7, Cynomolgus monkey (Macaca fascicularis) LILRB ectodomain fused to mIgG2a (cynomolgus monkey (Macaca fascicularis)).
T7 construct: also called cynomolgus LILRB protein
The experiment is described as above.

For another experiment, the target named is T8, Human LILRA1 ectodomain (human, UniProt O75019 17-461).
T8 construct: Recombinant protein from a commercial source
T8 sequence (O75019 17-461): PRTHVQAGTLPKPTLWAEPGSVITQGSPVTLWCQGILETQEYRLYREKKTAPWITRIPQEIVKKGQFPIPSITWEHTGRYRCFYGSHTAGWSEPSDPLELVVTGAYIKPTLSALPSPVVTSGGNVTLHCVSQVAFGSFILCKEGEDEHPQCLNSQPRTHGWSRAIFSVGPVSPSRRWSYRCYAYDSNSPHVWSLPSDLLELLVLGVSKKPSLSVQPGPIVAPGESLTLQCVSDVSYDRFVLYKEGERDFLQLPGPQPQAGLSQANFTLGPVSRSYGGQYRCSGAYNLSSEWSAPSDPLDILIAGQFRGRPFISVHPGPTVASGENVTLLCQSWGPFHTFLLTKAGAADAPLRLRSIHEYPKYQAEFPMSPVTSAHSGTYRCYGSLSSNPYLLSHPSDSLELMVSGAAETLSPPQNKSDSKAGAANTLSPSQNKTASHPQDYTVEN
Description: multi-point ELISA, antigen coated, apparent EC50. On the procedure:
(§4) FIG. 32. Binding of Clones 1-5 to selected LILR family members tested by multiple point ELISA. Recombinant LILRB1, LILRB2, LILRB3, LILRA1, LILRA3, LILRA4, and LILRA6, or irrelevant control protein were coated on the ELISA plates. The plates were then blocked with milk in PBST. Next, the plates were incubated with serial dilutions (12.5 nM to 0.02 nM) of Clones 1-5 (A-E). Bound antibodies were detected using HRP-conjugated anti-human Fc antibodies and the chromogenic substrate.
(§5) Binding of Clones 1-5 to selected LILR family members tested by multiple point ELISA. (FIG. 32) Recombinant LILRB1, LILRB2, LILRB3, LILRA1, LILRA3, LILRA4, LILRA6, or irrelevant control protein were coated on the ELISA plates. The plates were then blocked with milk in PBST. Next, the plates were incubated with serial dilutions (12.5 nM to 0.02 nM) of Clone 1-5 (A-E). Bound antibodies were detected using HRP-conjugated anti-human Fc antibodies and the chromogenic substrate.

Experiment [10] deals with LILRA6 recombinant, full-length ectodomain (LILRA6 24-447) (human, UniProt Q6PI73 24-447). Description: multi-point ELISA, antigen coated, apparent EC50. The protocol:
as §4, §5

Experiment [11] deals with LILRB1 recombinant, full-length ectodomain (human, UniProt Q8NHL6 24-461). Description: multi-point ELISA, antigen coated, apparent EC50. The protocol: as §4, §5
LILRB1 recombinant, full-length ectodomain, sequence (Q8NHL6 24-461 limits assumed): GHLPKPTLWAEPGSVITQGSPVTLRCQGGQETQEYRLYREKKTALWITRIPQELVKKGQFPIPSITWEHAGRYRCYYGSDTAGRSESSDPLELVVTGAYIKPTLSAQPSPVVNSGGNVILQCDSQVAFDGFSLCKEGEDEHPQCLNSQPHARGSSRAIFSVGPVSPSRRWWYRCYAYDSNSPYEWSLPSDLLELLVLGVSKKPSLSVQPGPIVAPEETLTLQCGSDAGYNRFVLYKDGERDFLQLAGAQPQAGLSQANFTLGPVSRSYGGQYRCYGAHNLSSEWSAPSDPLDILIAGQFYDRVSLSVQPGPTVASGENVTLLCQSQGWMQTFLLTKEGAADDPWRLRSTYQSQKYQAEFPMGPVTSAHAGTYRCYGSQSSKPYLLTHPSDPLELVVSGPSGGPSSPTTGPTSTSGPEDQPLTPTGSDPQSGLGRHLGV
The target in experiment [12] is LILRA4 recombinant, full-length ectodomain (LILRA4 24-446) (human, UniProt P59901 24-446). Description: multi-point ELISA, antigen coated, apparent EC50. The protocol: as §4, §5
Experiment [13] addresses LILRB3 recombinant, full-length ectodomain (LILRB3 24-443) (human, UniProt O75022 24-443). Description: multi-point ELISA, antigen coated, apparent EC50. The protocol: as §4, §5
Experiment [14] has as its target LILRB2 recombinant, full-length ectodomain (LILRB2 22-458) (human, UniProt Q8N423 22-458). Description: multi-point ELISA, antigen coated, apparent EC50. On the procedure:
as §4, §5

The target of the next experiment is T9, Human full length LILRA3 (human, UniProt Q8N6C8 24-439).
T9 construct: Commercial recombinant protein; also the parent of the LILRA3 peptide microarrays
T9 sequence (Q8N6C8 24-439 A105V limits assumed): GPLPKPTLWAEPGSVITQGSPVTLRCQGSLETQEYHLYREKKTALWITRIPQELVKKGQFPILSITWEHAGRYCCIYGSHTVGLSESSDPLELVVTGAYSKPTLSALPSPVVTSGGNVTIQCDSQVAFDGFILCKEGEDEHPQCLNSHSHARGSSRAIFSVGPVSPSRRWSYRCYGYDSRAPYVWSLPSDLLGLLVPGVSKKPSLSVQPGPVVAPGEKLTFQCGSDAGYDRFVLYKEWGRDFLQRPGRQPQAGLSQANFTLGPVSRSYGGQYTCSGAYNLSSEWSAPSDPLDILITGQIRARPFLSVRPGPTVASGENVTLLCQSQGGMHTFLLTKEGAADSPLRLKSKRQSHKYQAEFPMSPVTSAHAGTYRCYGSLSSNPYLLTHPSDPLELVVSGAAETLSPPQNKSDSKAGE
Description: multi-point ELISA, antigen coated, apparent EC50. The protocol: as §4, §5

The target in another experiment is T10, Human full length LILRB2 (human, UniProt Q8N423 22-597).
T10 construct: Over-expressed on HEK293 cells for flow cytometry; Also used here as the parent protein of the D3-D4 peptide microarrays; also called LILRB2 on HEK293 cells
T10 sequence (Q8N423 other isoform, or with tags, fused parts or gaps limits assumed): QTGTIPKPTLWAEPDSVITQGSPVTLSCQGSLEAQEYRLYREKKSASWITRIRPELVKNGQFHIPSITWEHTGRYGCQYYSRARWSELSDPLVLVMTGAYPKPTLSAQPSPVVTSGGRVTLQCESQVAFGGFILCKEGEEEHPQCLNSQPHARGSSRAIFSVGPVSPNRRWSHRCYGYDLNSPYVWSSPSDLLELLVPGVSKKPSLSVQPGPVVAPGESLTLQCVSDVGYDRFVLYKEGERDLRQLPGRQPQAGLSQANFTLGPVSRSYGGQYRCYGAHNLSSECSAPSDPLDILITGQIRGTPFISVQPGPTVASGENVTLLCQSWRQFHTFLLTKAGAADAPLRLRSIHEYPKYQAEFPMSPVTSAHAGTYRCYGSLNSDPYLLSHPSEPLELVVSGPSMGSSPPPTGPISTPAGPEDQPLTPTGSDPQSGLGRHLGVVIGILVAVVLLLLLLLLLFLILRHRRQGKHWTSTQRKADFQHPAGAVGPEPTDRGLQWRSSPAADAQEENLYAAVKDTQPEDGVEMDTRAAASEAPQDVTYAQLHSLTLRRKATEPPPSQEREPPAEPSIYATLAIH
The experiment in a line: flow cytometry, displacement of PE-labelled HLA-A2, HLA-E and HLA-G multimers from HEK293 cells overexpressing LILRB2. On the procedure: (§6) To investigate if the Antibodies 1 to 5 could neutralize binding of other HLA-As to LILRB1 or to LILRB2, HEK293 cells overexpressing the receptors were incubated with constant concentrations of PE-labelled HLA-A2, HLA-E, and HLA-G multimers and increasing concentrations of Antibodies 1 to 5 or the reference antibodies. The ability to neutralize binding of HLA to the cells was determined by flow cytometry (FIG. 21). None of Antibodies 1 to 5 neutralized binding of HLA-A (A), HLA-E (B), and […] to LILRB1 protein, up to the concentrations of 100 nM, whereas Reference 1 antibody (LILRB1 specific) and Reference 3 antibody (LILRB1/2 specific) neutralized the binding with an IC₅₀ in the sub- or low-nM range. Similarly, none of Antibodies 1 to 5 neutralised efficiently the binding of HLA-A (E) and HLA-G (G). […] Reference Antibody 2 (LILRB2 specific) and Reference Antibody 3 (LILRB1/2 specific), inhibited the binding for all HLAs, with IC₅₀ with sub- or low-nM range.

The target of another experiment is T11, Human full length LILRB1 (human, UniProt Q8NHL6 24-650).
T11 construct: Over-expressed on HEK293 cells for flow cytometry; also called LILRB1 on HEK293 cells; cell membrane embedded LILRB1
The experiment in a line: flow cytometry, displacement of PE-labelled HLA-A2, HLA-E and HLA-G multimers from HEK293 cells overexpressing LILRB1. The protocol: as §6

T7 sequence (chain, as listed by the source limits assumed): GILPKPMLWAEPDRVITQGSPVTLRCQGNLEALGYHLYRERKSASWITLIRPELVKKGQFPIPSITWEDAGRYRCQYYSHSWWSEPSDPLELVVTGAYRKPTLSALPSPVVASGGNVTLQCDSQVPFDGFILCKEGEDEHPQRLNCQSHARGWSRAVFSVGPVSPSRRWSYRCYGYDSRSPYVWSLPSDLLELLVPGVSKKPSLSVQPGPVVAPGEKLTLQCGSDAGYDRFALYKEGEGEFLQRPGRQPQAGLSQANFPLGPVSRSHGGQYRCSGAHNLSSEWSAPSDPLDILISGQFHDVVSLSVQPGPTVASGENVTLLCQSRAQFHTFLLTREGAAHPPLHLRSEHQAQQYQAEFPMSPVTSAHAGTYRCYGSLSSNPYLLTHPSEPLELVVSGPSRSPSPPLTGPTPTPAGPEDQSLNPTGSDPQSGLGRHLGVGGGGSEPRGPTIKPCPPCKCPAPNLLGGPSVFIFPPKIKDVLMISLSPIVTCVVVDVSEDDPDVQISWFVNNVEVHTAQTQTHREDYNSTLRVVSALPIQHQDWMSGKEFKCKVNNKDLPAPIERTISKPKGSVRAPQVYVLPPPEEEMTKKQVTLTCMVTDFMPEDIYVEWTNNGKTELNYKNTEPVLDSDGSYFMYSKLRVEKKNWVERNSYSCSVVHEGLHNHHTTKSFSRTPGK
LILRA6 recombinant, full-length ectodomain (LILRA6 24-447), sequence (Q6PI73 24-447): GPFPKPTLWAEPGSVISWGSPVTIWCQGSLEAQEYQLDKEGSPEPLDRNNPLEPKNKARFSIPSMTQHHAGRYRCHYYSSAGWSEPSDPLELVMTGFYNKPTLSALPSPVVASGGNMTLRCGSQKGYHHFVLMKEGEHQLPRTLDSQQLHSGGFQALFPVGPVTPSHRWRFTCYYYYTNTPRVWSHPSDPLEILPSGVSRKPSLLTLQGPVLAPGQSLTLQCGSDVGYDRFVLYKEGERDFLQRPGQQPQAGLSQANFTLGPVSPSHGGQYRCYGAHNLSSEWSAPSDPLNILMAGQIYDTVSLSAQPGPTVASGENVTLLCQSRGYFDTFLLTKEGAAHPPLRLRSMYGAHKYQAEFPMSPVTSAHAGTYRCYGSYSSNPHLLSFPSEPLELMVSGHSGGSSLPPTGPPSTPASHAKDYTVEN
T2 sequence (chain, as listed by the source L68P A93T L68P A93T limits assumed): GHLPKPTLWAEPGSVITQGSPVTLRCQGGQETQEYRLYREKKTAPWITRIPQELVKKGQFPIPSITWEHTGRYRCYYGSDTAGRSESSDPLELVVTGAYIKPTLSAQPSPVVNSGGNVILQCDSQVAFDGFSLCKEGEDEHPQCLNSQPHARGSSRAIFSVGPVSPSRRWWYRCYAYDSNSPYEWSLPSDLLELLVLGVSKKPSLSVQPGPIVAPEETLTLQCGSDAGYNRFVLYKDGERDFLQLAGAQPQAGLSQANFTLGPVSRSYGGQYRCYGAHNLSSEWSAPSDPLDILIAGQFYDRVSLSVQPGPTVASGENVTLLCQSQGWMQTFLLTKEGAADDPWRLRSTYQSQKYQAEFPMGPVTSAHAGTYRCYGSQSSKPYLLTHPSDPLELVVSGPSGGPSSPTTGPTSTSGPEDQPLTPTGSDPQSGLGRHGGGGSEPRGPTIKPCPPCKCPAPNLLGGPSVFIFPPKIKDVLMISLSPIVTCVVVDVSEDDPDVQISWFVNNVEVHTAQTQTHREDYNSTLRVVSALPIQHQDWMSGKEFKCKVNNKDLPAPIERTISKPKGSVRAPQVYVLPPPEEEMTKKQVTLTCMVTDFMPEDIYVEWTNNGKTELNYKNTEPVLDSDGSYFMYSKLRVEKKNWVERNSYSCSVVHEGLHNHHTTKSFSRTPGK

B1: Antibody 2 (antibody, V domains shown)
VH: QVQLVESGGDLVKPGGSLRLSCAASGFTFRDYYMSWIRQAPGKGLEWVSYISPSGSTIFYADSVKGRFTISRDNAKNSLYLQMNSLRAEDTAVYYCAKDRVRLFDYWGQGTLVTVSS
VL: EIVLTQSPATLSLSPGERATLSCRASQSVSSSYLAWYQQKPGQAPRLLIYGASTRATGIPARFSGSGSGTDFTLTISRLEPEDFAVYYCQQRSNWPITFGQGTRLEIK
notes: Fully human antibody; IgG1 and IgG1 LALA variants also made for functional assays; also called Clone 2; Antibody Clone 2
For the molecule B1, the binding result in experiment [1] is “binds”; in experiment [2], “binds”; in experiment [3] it was “no binding (tested: 1 nM)”; with Human LILRA2 ectodomain it was “no binding (tested: 1 nM)”; in experiment [4], “no binding (tested: 1 nM)”; in experiment [5] it was “no binding (tested: 1 nM)”. The binding result in experiment [6] is reported as “no binding”; in experiment [7] it was “binds”; in experiment [8], “binds”; in experiment [9] it was “binds”. Besides, the EC50 in the experiment with Human LILRA1 ectodomain amounted to 8.37 nM; in experiment [10], 0.92 nM; in experiment [11] it was 0.78 nM; in experiment [12], 0.62 nM; in experiment [13] it was 0.69 nM; in experiment [14], 0.74 nM. Besides, the EC50 with Human full length LILRA3 was found to be 0.84 nM.

B2: Reference antibody 2 (anti-human LILRB2 Ab) (antibody, human IgG4 S228P, lambda, V domains shown)
VH: EVQLQQWGAGLLKPSETLSLTCAVYGGSFSGYYWSWIRQPPGKGLEWIGEINHAGSTNYNPSLKSRVTISVDTSKNQFSLKLSSVTAADTAVYYCARLPTRWVTTRYFDLWGRGTLVTVSS
VL: ESVLTQPPSVSGAPGQRVTISCTGSSSNIGAGYDVHWYQQLPGTAPKLLIYGDSNRPSGVPDRFSVSKSGASASLAITGLQAEDEADYYCQSFDNSLSAYVFGGGTQLTVLG
Turning to B2, the binding result in the experiment with Human full length LILRB2 is listed as “binds”.

B3: Reference Antibody 3 (anti-human LILRB1 and LILRB2 Ab) (antibody, V domains shown)
VH: QVQLVQSGAEVKKPGASVKVSCKASGYTFTDYYINWVRQAPGQGLEWMGNVNPNDGGTTYNQKFKGRVTMTTDTSTSTAYMELRSLRSDDTAVYYCARREIYFYGTIYYYAMDYWGQGTLVTVSS
VL: DIQLTQSPSFLSASVGDRVTITCRASESVDYYGNSFMYWYQQKPGKAPKLLIYFASNLESGVPSRFSGSGSGTEFTLTISSLQPEDFATYYCQQNNEDPWTFGGGTKVEIK
Consider B3, for which the binding result with Human full length LILRB1 and in the experiment with Human full length LILRB2 was “binds” in each case.
